Where no end group is shown, it is not given here.
T1: Biotin conjugated L145K CD28 stalk region dimeric peptide (human, C-terminal biotin; dimer through Cysteine 141)
T1 peptide: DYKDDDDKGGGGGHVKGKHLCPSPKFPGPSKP

T2: BSA conjugated CD28 stalk region dimeric peptide (human, also: dimer through the cysteine, BSA conjugated via C-terminal Lys by hydrazide chemistry)
T2 construct: Peptide used for immunization and, BSA conjugated, as ELISA antigen for M9; also called stalk region peptide
T2 peptide: GKHLCPSPLFPGPSKPK


Columns and labels:
[1] = target: T3, membranal human CD28 (full-length human CD28 on cells) (human, UniProt P10747 19-220); experiment: FACS, FITC conjugated VHH on HEK cells overexpressing human CD28 (FIG. 14)
T3 construct: in the functional assays also the CD28 of human CD3 or CD4 T cells and PBMC; also called mCD28; membranal CD28

[2] = target: T1, Biotin conjugated L145K CD28 stalk …; experiment: direct ELISA on L145K dimeric stalk peptide on neutravidin plates, anti His tag-HRP (FIG. 23)
[3] = target: T2, BSA conjugated CD28 stalk region …; experiment: ELISA, antigen immobilized, serial dilution of M9, anti mouse IgG-HRP (FIG. 12A)

Row | Binder | binding result [1] | binding result [2] | binding result [3]
1 | VHH clone 2A1 (VHH, also called VHH #2A1) VHH: EVQLVESGGGLVQAGESLRLSCAASGSIASINAMGWYRQAPGSQRELVAAISGGGDTYYADSVKGRFTISRDNAKTTVYLQMNSLRPEDTAVYYCVVDLYGSDYWDWGQGTQVTVSS | binds | no binding (tested: 0.2-5 µg/mL) | –
2 | antibody M9 (antibody, V domains shown, Full-size mouse antibody raised in CD1 mice against the dimeric stalk peptide; detected with anti mouse IgG; also called clone M9; anti-cleavage antibody M9) VH: DVKLVESGGGLVKLGGSLKLSCVASGFTFSSYYMSWVRQTPEKRLEWVATISDGGDNTYYAGTVTGRFTISRDFAKNTLYLQMNSLTSEDTAVYYCARIHWPYYFDSWGQGTTLTVSS VL: QFVLSQSPAILSASPGEMLTMTCRASSSVSYMNWYQQKPGSSPKPWIYATSDLASGVPARFSGSGSGTSYSLTISRVEAEDAATYYCQQWSSHPPTFGGGTKLEIR | – | – | binds
3 | VHH clone 4A4 (VHH) VHH: EVQLVESGGGLVQAGGSLRLSCAASGSLFSINAMAWYRQAPGKQRELVAAITSSGSTNYANSVKGRFTVSRDNAKNTMYLQMNSLKPEDTAVYYCVVDEYGSDYWIWGQGTQVTVSS | – | no binding (tested: 0.2-5 µg/mL) | –
4 | VHH clone 4A1 (VHH) VHH: QVQLVESGGGLVQAGGSLRLSCAASGSIFSINAMGWYRQAPGKQRERVAAITSGGSTNYADSVKGRFTISRDNAKNTVYLQMNNLEPRDAGVYYCVVDLYGEDYWIWGQGTQVTVSS | – | no binding (tested: 0.2-5 µg/mL) | –

Source: patent publication US20220169732A1 (BIOND BIOLOGICS, published 2022)
